Measured values reported in US20240035022A1.

Target: hCD52 peptide mimetope (affinity measurement of Table 1) (human)
Test: affinity on a hCD52 peptide mimetope, method not stated (footnote of Table 1)

Kd: 68 nM
Substance: Campath-1H (antibody)
